# According to US8956612B2, “Peptide associated with rheumatic fever (PARF) and its use as a diagnostic marker” (Helmholtz-Zentrum für Infektionsforschung GmbH, priority 2006, dated 2015):
# B1: FOG1-A: recombinant protein, the first 134 amino acids of the mature FOG protein (protein, listed as Streptococcus sp.)
# chain: DRWKAQTEEARTDKLIAGFANLDADVTNLGKMMDELQKLKDFSKQNNSIGEYARYLQKLNDQFQEYYEQVVGDDSRRVLAKELAKNTELNEKLSELSTTSQALAKELQEQKENYDLVK
# Experiments:
# collagen IV [1] = assay: Immunization of mice, anti-collagen IV antibody titer by ELISA; assay type: in vivo, BALB/c mice; settings: sera of immunized mice compared to the buffer control
# Description: Pathogen free 8 week old female BALB/c mice were immunized intra-peritoneally with an emulsion of 25-30 μg recombinant purified protein in 50 μl PBS and 50 μl Freund's incomplete adjuvant per dose at day 1, 7 and 14. Control mice were injected with 50 μl PBS and 50 μl Freund's incomplete adjuvant per dose. At day 21, serum samples of each group were collected and tested in ELISA. To absorb FOG reactive antibodies, 10 μl serum pool was diluted 1:50 in PBS, and incubated for 1 h with 1 mg GST-FOGfl protein immobilized on glutathione sepharose 4B. Antibodies that bound to the affinity matrix were removed by centrifugation. The supernatant was subjected to ELISA analysis.
# To determine anti-collagen CIV antibody titers, 96 well plates (Greiner, Frickenhausen, Germany) were coated over night at 4° C. with anti-human collagen IV rabbit polyclonal antibody (Progen, Heidelberg, Germany) diluted 1:100 in 0.1 M NaHCO3 (pH=9.6), blocked with 2% bovine serum albumin (BSA) in PBST and incubated with collagen IV (2 μg/ml in PBS) for 1 h at 37° C. […] After washing, bound antibodies were detected using suitable horseradish peroxidase coupled secondary anti-serum (goat anti-mouse IgG,M, Jackson Laboratories; rabbit anti-human IgG, A, M, Sigma-Aldrich) and 2,2-azino-di-[3-ethylbenzthiazoline sulfonate]diammonium salt (ABTS tablets, Boehringer, Mannheim, Germany) as substrate. […]
# collagen IV [2] = molecular target: T1, collagen IV (Homo sapiens, UniProt P02462+P08572); assay: Surface plasmon resonance, FOG fragments on immobilized collagen IV; assay type: binding; settings: SPR; 12.5, 25, 50, 100 μg/ml
# T1 construct: purchased Sigma; host or cells: human placenta (tissue-derived)
# Description: Site directed mutagenesis was performed on the plasmid pGEX-6P-1-FOGfl that coded for the GST-FOGfl fusion protein. E. coli clones containing the plasmids with the desired substitutions were generated using the GeneTailor™ Site Directed Mutagenesis System (Invitrogen) following the manufacturers recommendations. The tagged proteins from E. coli lysates were bound to glutathione sepharose 4B (GE Healthcare) and eluted with 10 mM reduced L-glutathione (Sigma) in 50 mM TrisHCl (pH=8.0) after washing the matrix with PBS. Alternatively, for SPR measurements of FOG1-B and FOG1-A the GST-tag was removed by digesting the proteins with PreScission™ protease (GE Healthcare) while bound to the affinity matrix, which eluted the untagged FOG proteins.
# Protein interactions were studied in a BIAcore 2000 system (BIAcore AB) using 10 mM HEPES, 100 mM NaCl, pH=7.4 as running buffer. A CM5 sensor chip was activated by a 4 min injection of 0.05M N-hydroxysuccinimid, 0.2 M N-ethyl-N-(3-dimethylaminopropyl)-carbodiimide hydrochloride in water. Collagen IV from human placenta (Sigma, 1 mg/ml in 0.1M NaAc) was diluted 1:25 in 10 mM NaAc (pH=5.2). Immediate injection of 3 μl at a flow rate of 5 μl/min lead to immobilization of 400 to 550 response units (RU) of collagen IV. Residual reactive groups were inactivated by 6 min injection of 1 M ethanolamine, 0.1 M NaHCO3, 0.5 M NaCl, 5 mM EDTA, pH=8.0. […]
# T1 sequence (P02462 173-1669): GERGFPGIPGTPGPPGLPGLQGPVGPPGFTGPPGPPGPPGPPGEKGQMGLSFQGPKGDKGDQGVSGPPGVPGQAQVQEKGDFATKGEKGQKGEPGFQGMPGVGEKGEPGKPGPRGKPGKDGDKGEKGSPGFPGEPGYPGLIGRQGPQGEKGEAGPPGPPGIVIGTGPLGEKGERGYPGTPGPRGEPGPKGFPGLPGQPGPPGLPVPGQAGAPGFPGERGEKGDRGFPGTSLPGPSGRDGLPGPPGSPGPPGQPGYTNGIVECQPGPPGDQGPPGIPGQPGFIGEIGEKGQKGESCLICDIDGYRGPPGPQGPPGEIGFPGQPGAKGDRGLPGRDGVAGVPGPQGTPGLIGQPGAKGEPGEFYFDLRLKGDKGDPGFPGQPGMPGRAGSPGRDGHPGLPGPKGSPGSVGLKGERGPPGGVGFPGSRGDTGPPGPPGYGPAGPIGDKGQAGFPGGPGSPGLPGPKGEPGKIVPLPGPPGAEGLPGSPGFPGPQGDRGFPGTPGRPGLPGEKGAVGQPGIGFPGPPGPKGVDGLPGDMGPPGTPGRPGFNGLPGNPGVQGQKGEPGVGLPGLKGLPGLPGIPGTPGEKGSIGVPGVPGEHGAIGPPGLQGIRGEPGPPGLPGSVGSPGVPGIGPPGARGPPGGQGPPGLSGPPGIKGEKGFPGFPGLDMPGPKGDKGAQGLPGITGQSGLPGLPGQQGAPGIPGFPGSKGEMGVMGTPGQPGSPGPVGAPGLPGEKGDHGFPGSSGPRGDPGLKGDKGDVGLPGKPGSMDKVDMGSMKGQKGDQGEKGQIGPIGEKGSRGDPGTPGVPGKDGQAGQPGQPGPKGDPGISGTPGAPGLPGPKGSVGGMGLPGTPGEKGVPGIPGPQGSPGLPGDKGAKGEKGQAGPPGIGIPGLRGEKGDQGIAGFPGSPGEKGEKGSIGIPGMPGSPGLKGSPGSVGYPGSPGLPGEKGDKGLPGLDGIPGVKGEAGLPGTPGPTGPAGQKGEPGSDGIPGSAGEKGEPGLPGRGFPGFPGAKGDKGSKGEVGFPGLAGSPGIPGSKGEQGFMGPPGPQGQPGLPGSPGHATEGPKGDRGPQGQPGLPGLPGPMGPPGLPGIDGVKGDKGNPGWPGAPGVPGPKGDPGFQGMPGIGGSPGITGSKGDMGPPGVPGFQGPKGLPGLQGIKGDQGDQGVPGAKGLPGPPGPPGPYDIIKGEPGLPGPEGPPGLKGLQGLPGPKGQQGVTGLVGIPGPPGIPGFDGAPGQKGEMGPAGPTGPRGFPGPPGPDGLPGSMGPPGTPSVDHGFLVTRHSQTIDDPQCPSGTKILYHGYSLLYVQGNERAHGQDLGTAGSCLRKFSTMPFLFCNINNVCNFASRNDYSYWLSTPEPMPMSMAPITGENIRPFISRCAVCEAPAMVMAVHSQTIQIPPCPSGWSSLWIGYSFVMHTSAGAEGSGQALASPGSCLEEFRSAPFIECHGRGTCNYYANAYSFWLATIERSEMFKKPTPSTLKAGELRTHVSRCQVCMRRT
# T1 sequence (P08572 184-1712): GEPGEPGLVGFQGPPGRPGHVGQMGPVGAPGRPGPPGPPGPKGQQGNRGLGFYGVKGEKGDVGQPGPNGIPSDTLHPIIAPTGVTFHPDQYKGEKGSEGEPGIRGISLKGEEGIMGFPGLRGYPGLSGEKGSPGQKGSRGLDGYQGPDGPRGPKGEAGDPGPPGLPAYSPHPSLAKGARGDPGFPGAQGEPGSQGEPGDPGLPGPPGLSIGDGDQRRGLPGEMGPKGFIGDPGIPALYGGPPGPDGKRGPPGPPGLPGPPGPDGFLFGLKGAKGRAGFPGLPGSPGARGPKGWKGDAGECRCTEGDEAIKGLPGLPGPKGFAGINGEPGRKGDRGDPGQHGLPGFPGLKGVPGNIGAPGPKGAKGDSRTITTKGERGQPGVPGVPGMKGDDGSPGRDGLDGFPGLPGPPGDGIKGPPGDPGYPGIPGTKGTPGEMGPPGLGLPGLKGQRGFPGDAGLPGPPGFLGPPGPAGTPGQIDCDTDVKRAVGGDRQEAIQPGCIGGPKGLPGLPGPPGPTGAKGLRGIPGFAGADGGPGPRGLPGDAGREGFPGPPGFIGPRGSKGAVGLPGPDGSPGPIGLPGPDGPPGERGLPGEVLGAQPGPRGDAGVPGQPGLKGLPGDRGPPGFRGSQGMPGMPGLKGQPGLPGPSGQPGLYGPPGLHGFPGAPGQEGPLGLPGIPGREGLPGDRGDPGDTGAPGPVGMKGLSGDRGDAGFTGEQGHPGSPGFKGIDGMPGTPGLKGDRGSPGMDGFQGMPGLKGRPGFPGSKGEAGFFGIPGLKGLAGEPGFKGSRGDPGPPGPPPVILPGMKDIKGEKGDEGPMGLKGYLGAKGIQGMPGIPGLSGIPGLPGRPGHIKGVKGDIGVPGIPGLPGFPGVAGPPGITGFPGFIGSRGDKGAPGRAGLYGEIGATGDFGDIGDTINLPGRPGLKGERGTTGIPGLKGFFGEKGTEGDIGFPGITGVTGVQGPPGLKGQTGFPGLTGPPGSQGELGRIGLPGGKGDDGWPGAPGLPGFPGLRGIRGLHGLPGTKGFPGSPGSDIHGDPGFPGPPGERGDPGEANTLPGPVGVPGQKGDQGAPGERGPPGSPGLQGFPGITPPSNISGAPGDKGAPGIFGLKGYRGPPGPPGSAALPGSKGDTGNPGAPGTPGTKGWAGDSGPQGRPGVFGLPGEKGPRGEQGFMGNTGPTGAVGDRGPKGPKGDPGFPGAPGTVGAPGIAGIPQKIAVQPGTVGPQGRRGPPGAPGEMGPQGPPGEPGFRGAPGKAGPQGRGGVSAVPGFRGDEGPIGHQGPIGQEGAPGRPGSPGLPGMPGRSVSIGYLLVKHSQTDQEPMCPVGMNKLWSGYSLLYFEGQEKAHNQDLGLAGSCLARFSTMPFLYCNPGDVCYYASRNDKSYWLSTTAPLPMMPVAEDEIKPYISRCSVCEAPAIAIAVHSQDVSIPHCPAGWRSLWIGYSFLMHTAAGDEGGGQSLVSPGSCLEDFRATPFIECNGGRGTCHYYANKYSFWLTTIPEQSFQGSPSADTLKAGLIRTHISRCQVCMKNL
molecule,measurement,setting,value
B1,titers of anti-collagen antibodies in ELISA,collagen IV [1],Substantially higher titers
same,interaction with immobilized collagen IV,collagen IV [2],concentration dependent interaction
